Experimental data: the nanobody polyreactivity screen of Harvey et al. (2022)

Experiment: yeast display, Sf9 membrane polyspecificity reagent, FACS + sequencing; frameworks hold sequencing errors
Summary of the method: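 Sorting gates, low and high (top ~1%), were placed on anti-HA fluorescence to track expression and on streptavidin fluorescence to track reagent binding. A clone's polyreactivity label is taken from the gate it came out of. The reagent was 10% biotinylated, detergent-solubilized Sf9 membrane, applied for 1 hour at 4 °C to galactose-induced yeast display cells.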

Sequence | polyreactivity (PSR sort gate)
QVQLVESGGGLVQAGGSLRLCCAATGSIFPGNAMGWYRQAPGKEMELVATNTWSGGSTYYADSVKGRFTISRDNAKNTVYFQMKSLKPVDTAVYYCKADSSWFYQWKDYGMYDYWGQGTQVTVSS | low polyreactivity
QVQLVESGGGLVQAGGSLRLICAASGSTFLTNVMGWYRQAPGKERELVAAISRGGGRTYYADSVKGRFTISRDNAKNTVYLQMNSLKPEDTAVYYCNAVDASHAGPVGGAFRYDYWGQGTQVTVSS | high polyreactivity
QVQLVESVGGLVQAGGSLRLSCAASGFIFNPYAMGWYRQAPGKERELVAAISWRGASTYYADSVKGRFTISRDNAKNTVYLQMNSLNPEDTAVYYCAADLAYSSTASDYEYWGQGTQVTVSS | low polyreactivity
QVQLVESGGGLVQAGGSLRLSCAASGITFGRNTMGWYRQAPGKERELVAAIDSGRNTYADSVKGRFTISRDNAKNPVYLQMNSLKPEYTAVYYCNADKSNFVRGYYWGQGTQVTVSS | low polyreactivity
QVQIVESGGGLVQAGGSLRLSCAASGSTFQYYAMGWYRQAPGKERELVAGITWRDGNTYYADSVKGRFTISRDNAKNSVYLQMNSLKPEDTAVYYCAARRYFVIYFPYDYWGQGTQVTVSS | low polyreactivity
QVQLVESGGGLVQAGGSLRLSCAASGSTFYFYAMGWYRQAPGKERELVAAISSSGGSTYYADSVKGRFTISRDNAKNTVYLQMNSLKPEDTAVYYCAADDAIYDSLDYWGQGTQVTVSS | low polyreactivity
QVQLVESGGGLVQAGGSLRLSCAASGSTIAGNAMGWYRQAPGKERELVAVITRGGSTNYADSVKGRFTISRDNAKNTVSLQMNSLKPEDTAVYYCARYRFLLDYWRGGYYWGQGTQVTVSS | high polyreactivity
QVQLVESGGGLVQAGGSLRLSGAASGRIFAQYAMGWYRPAPAKERELVAAITAGDDTYADSVKGRFTISRDNAKNTVYLQMNSLKPEDTAVYYCAAETWDLTWWGAYDLGEYWGQGTQVTVSS | high polyreactivity
QVQLVESGGGLVQAGGSLRLSCAASGIIFFSYAMGWYRQAPGKERELVAAISGTGGNTYYADSVKGRFTISRDNAKNTVYLQMNSLKPEDTAVYYCAADQEWYYYFDSFAYYILGYWGQGTQVTVSS | high polyreactivity
QVQLVESGGGIVQAGGSLRLSCAASGSSFQTNAMGWYRLAPGKERELVATINRSGDSTYYADSVKGRFTISRDNAKNTVYLQMNSLKPEDTAVYYCNKDWHSQDFSAYNSYDYWGQGTQVTVSS | low polyreactivity
QVQLVESGGGLVQAGGSLRLSCAASGSTFSKNAMGWYRPAPGKERELVAAIRSRGGSTYYADSVKGRFTISRDNAKNTVYLQMNSLKPEDTAVYYCAAQYFWYVYSYDYWGQGTQVTVSS | high polyreactivity
QVQLVESGGGLVQAGGSLRLSCAASGFTFQTYAMGWYRQAPGKERELVATINSSGGGTYYADSVKGRFTNSRDNAKNTVYLQMNSLKPEDTAVYYCAADAVWFVGQAFDISDSTTYGYWGQGTQVTVSS | low polyreactivity
QVQLVESGGGLVQAGGSLRLSCAASGSNSRVNAMGWYRQATWKERELVASITKSTGSTYYADSVKGRFTISRDNAKNTVYLQMNSLKPEDTAVYYCAKAASYPVRAFYYWGLGTQVTVSS | high polyreactivity
QVQLVESGGGLVQAGGSLRLSCAASGSTFYYYTMGWYRQAPGKEREFVAAITRSGGSTYYADSVKGRFTISRDNSKNTVYFQMNSLKPEDTAVYYCNVDGTSSSPFVQKHKEMDYWGQGTQVTVSS | low polyreactivity
QVQLVESGGGLVQAGGSLRLSCAASGRTIHFNTMGWYRQAPGKERELVAAIRWGGNTYYADSVKGRFTISRDNAKNTVYLQKNSLKPEDTAVYYCAADRWYYFLMYYWGQGTQVTVSS | low polyreactivity
KVQLVESGGGLVQAGGRLRLSCAASGGTFVINVMGWYRQAPGKERELVAAISWNGDSTYYADSVKGRFTISRDNAKNTVYLQMNSLKPEDTAVYYCATDTWRVYYAYWQFGVWELGYWGQGTQVTVSS | low polyreactivity
QVQLVESGGGLVQAGGSLRLSCAASGSTFPKYAMGWYRQAPGKERELVASISVTTGSTYYADSVKGRFTISRDSAKNTVYLQMNSQKPVDTAVFYCAKRTYSRKFRGAYNYWGQGTQVTVSS | high polyreactivity
QVQLVESGGGLVQAGASLRLSCAASGGTFLIYGRGWYRQAPGKERELVAAISRSGGSTYYADSVKGRFTISRDNAKNTVYLQMNSLKPEDTAVYYCAADSGYLSPYDYWGQGTQVTVSS | low polyreactivity
QVQLVESGGGLFQEGGSLRLSCAASGSIFEPYVMGWYRQAPGKESELVAAIRQTGGSTYYADSVKGRFTISRDNAKNTVYLQMNSLKPEDTAVYYCNAEQNPSGLYDYRGVEGEMGYWGQGTQVTVSS | low polyreactivity
QVQLVESGGGLDQAAGSLRLSCAASGSIFDAYMRWYIQAPGKERELVAGITRSGGSTYYADSVKGRFTISRDNAKIKVYLQMNSLKPEDTAVDFCAADYSSDGDYWGLGTQVTVSS | low polyreactivity
QVQLVESGGGLVQAGGSLRLSCAASGFILTSYAMGWYRQAPGKERELVAAISSRGGRTYYADSVKGRFTISRDNAKNTVYLQMNSLKPEDTAVYFCNAVVYVVGDFDYWGQGTQVTVSS | high polyreactivity
QVQLVESGGGLVQAGGSLRLSCAASGSTIGYNAMGWYRQAPGKERELVAAISGSGTDTRYADSVKGRFTISRDNAKNTFYLQMNSRNPEDTAVYYCAVSVVYRGSKRVRQNPMEYWGQGTQVTVSS | high polyreactivity

Sequence | polyreactivity (PSR sort gate)
QVQLVESGGGLVQAGGSLRLSCAASGRIFQDYAMGWYRQAPGKERELVASIRWSSTSTYYADSVKGRFTISRDNAKNTVYLQMNSLKPEVSAVYYCAKRPFYLTYFRDDYWGQGTQVSVSS | low polyreactivity
QVQLEESGGGLVQAGGSLRLSCAASGSILVKYAMGRYRQAPGKERELVASITSTGNTYYADSVKGRFTISRDNAKNTVYLQMNSLKPEDTAVYYCAADAAFTYVYFQSDGYNYWGQGTQVTVSS | low polyreactivity
QVQLQESGRGLVQAGGSLLSCAASGTISWVDEMGWYRHAPGNERELVAGIAGGGNTNYADSLKGRFTISRDNAKNTVYLHMNSQDTAVYYCAVVVFGRGTHIYWCQGTQVTVSS | high polyreactivity
QVQLVESGGGLVQAGGSLRLSCAASGRTFISIVMAWYRQAPGKERELVAAIRSSGRTYYADSVKGRFTISRDNAKITVYLQINSLKPVDTAVYYCAAPGGLLGSGYWGQGTLVTVSS | low polyreactivity
QVQLVESGGCLVQAGGSLRLSCAASGYIFQWYDMGWYRPAPGKERELVAAISVTTGSTYYADSVKGRFTISRDNAQKTVYLQMNSLKPEDTAVYYCAAVSWYRHDMYYWGHGTQVTVSS | low polyreactivity
QVHLVESGGGLVQAGGSLRLSCAASGYTFSRNAMGWYRQAPGKERELVASISSRGGSTRYADSVKGRFTISRDNAKNTVYLQMNSLKPEDTAVYYCAVRGLYSPFTYGYWGQGTQVTVSS | high polyreactivity
QVQLVESGGGLVQAGGSLRLSCAASGRIFLRNAMGWYRQAPGKERELVATITSRGGSTYYADAVKGRFTISRDNAKNTVYLQMNSLKPVDTEVYDCAADPRRYRGFGYVYGGFYYWGQGTQVTVSS | low polyreactivity
QVQLVESGGGLVQAGGSLRLSCAASGRIFDRYGMGWYRQAPGKERELLAAITSRGGSTYYADSVKGRFTISRDNAKNTVYLQMNSLKPEDTAVYYCAAYGRYGFGRVERYDYWGQGTQVTVSS | high polyreactivity
QVQLVESGGGLVQAGGSLRLSCAASGSTFDSNVMGWYRQAPGKERELVAAINYSGVRTYYADSVKGRFTISRDNAKNTVYLQMNSLKPEDTAVYYCNARLFSYRYPEGGYWGQGTQVTVSS | high polyreactivity
QLQLVESGGGLVQAGGSLRLSCAASGSIFVVNAMGWYRQAPGKERELVAAISRGGITNYADSVKGRFTISRDNAKNTVYLQMNILKPEDTAVYYCNARGSRWVKPERDYWGQGTQVTVSS | low polyreactivity
PVQLVESGGGVVQAGGSLRLSCAASGSIFDENAKGWNRQAPGKERELVAAISSGGSTNYADSVKGRFTITRDNAKNTVYLQMNSLKPEDTAVYYCNNKSRRQYDYWGQGTQVTVSS | low polyreactivity
QVQLVESGGGLVQAGGSLRLSCAASGSTFAINAMGWYRQAPGKERELVAAISSSGSTNYADSVKGRFTISRDNAKNTVYLQMNSLKPEVTAVYYCAADRVWGTPQAYVPSQFDYWGQGTQVTVSS | low polyreactivity
QVQLVESGGGLVQAGGSLRLSCAASGSILGDNAMAWYRQAPGKERELVAAISYRGGSTYADSVKGRFTISRANAKNTVYLQMNSLKPEDTAVYYCNKTDIDDSQYREYEYWGQGTQVTVSS | low polyreactivity
QVLLVESGGGLVQAGGSLRLSCSASGSTSRFYAMGWSRQEPGKERELVAAINKSGTRTYYADSVKGRFTISRDNAKNTVYLQMNSLKPEDTAVYYCAADQGTYGYGGFYYWGLGTQVTVSS | high polyreactivity
QVQLVESVRGLVQAGGSLRLSCAASGSTFDNNAMGWYRQAPGKEREFVAAITYSGGGSTSYADSVKGRFTISRDNAKNTVYLQMNSLKPEDPAVYDCAAREFETDGYSLVAYNYWGQGTQVTVSS | low polyreactivity
QVQLVESGGGLVQAGGSLRLSCDASGITFIRNGMGWYRQAPGKERELVAAISDTGARTYYADSVKGRFTISRDNAKNTVYLQMNSLKPEDTAVYYCAAEVRTRYLYSFRWDDYWGQGTQVTVSS | low polyreactivity
QVQLVESGAGLVQAGGSLRLSCAASGSTLVYNDMGWYRQAPGKDREFVAAIRSNDGSTYYADSVKGRFTISRDNAKNTVYLQMNSLKPEDTAVYYCAKDSRNVYWDYGYWGQGTQVTVSS | low polyreactivity
QVQLVESGGGLVQAGGSLRISCAASGSISSDNVMGWYRQAPGKERELVAAISSGTSTHYADSVKGSFTISRDNAKNTVYLQMNSLNQEDTAVYYCAAYFYRQYLYFLYEYDYWGQGTQVTVSS | low polyreactivity
QVQLVESGGGLVQAGGSLRLSCAASGYTFYRNAMGWYRQAPGKERELVASLRDDGSTYYADSEKGRFTISRDNAKNTVYLHMNSLKPEDTAVYYCNSDYPYIWHKGARYWHENDYWGQGTQVTVSS | low polyreactivity
QVQLVESGGGLVQAGGSLRLRCAASGFTFYWYAMGWYRQAPGKEREIVAAIDQSGGSTYYADSVKGRFTISRDNAKNSVYLQMNSLKQEDTAVYYCAARYILWDGDSWTEFDYWGQGTQVTVSS | low polyreactivity
QVQLVESGGGLVQAGGSLRLSCAASGITFGDNTMGWYRQAPGKERELVAAITYSSTSTYYADSVKGRFTISRDNAKNTVYLQMNSLKPEDTAVYYCAAEGPGDVVSTDYDYWGQGTQVTVSS | low polyreactivity
